Measured values: patent publication US20170122964

Tested on: nucleosome on the remodeling DNA template with Atto 647N labeled histone H2B

ACF remodeling complex
FRET signal (nucleosome sliding assay): Nucleosome on the remodeling DNA template shows FRET signal, which is reduced over time by the remodeling complex.
